{"source": "paper PMC8594432", "about": "“One-step, kit-based radiopharmaceuticals for molecular SPECT imaging: a versatile diphosphine chelator for ^99mTc radiolabelling of peptides” (Dalton Transactions (Cambridge, England : 2003), 2021)", "assay_type": "physicochemical", "from_the_text": "Reaction of RGD with BMA[21,22] in a basic solution of DMF followed by semi-preparative reverse-phase C18 HPLC provided the diphosphine conjugate DP-RGD (Scheme 1) in ≥95% purity and 86% yield. DP-RGD was characterised by ^1H, ^13C and ^31P NMR, analytical HPLC and HR-ESI-MS (Fig. S1–S6 and Tables S1, S2 ^†).", "data": [{"smiles": "N=C(N)NCCC[C@@H]1NC(=O)[C@H](CCCCNC(=O)/C(=C(\\C(=O)O)P(c2ccccc2)c2ccccc2)P(c2ccccc2)c2ccccc2)NC(=O)[C@@H](Cc2ccccc2)NC(=O)[C@H](CC(=O)O)NC(=O)CNC1=O", "note": "[DP-RGD]", "values": [{"measurement": "stability in acidic solutions (in words)", "value": "decomposed to re-form RGD and BMA"}, {"measurement": "stability to oxidation in solution (in words)", "value": "slowly oxidised in solution to phosphine oxide derivatives"}, {"measurement": "stability to oxidation in the solid state (in words)", "value": "stable to oxidation"}]}]}
